Experimental data: US20050013808A1, “Nitroreductase enzymes” (priority 2001, published 2005)
Residue numbers refer to the chain shown, from its start. Names and notes keep the numbering of the source.

B1: F124H: NTR mutant, phenylalanine 124 to histidine (protein)
chain: MDIISVALKRHSTKAFDASKKLTPEQAEQIKTLLQYSPSSTNSQPWHFIVASTEEGKARVAKSAAGNYVFNERKMLDASHVVVFCAKTAMDDVWLKLVVDQEDADGRFATPEAKAANDKGRKFHADMHRKDLHDDAEWMAKQVYLNVGNFLLGVAALGLDAVPIEGFDAAILDAEFGLKEKGYTSLVVVPVGHHSVEDFNATLPKSRLPQNITLTEV
B2: Wild type: wild-type E. coli nitroreductase (NTR) encoded by the NfsB gene, SEQ ID NO:1 (protein, listed as Escherichia coli)
chain: B1 chain with H124F
B3: Y68G: NTR mutant, tyrosine 68 to glycine (protein)
chain: B1 chain with Y68G, H124F
B4: F124K: NTR mutant, phenylalanine 124 to lysine (protein)
chain: B1 chain with H124K
B5: F124N (protein)
chain: B1 chain with H124N
B6: N71S F124K: NTR double mutant, asparagine 71 to serine combined with phenylalanine 124 to lysine (protein)
chain: B1 chain with N71S, H124K

Test system: not listed separately
Experiment: Steady state kinetics of purified NTR, variable substrate NADH
Format: biochemical
Details: fixed substrate nitrofurazone
Experimental: (§1) Wild type NTR and selected mutants were purified as described by Lovering et al., 2001. Steady state kinetic studies were carried out by monitoring the disappearance of nitrofurazone ( ? =12,960, Zenno, et al., 1994) and nitrofurantoin ( ? =12,020, McOsker, et al., 1992) at 420 nm or the disappearance of reduced benzoquinone ( ? =18,5000), 2-nitrofuran ( ? =10,250, McOsker, et al., 1992), 2-nitrobenzamide ( ? =9,750, McOsker, et al., 1992) and 4 nitrobenzamide ( ? =9,720, McOsker, et al., 1992) at 300 nm. The formation of the 4 hydroxylamine product of CB1954 reduction was monitored at 420 nm ( ? =7900, Richard Knox, personal communication).
(§2) All reactions were performed in quartz cuvettes with either a 0.1-, 0.5-, or 1-cm pathlength. In all cases the reaction was initiated by the addition of a small amount of cold enzyme solution to the reaction mix. Assays were performed in 10 mM Tris HCL pH 7.0. The temperature of each reaction was maintained at 25° C. by means of a circulating water bath. All substrates examined were dissolved in DMSO, with the final concentration of organic solvent not exceeding 4% (v/v), concentrations>5% (v/v) give definable enzyme inhibition. In all assay the final DMSO concentration was at 4%. All steady state data were collected in an aerobic environment. Kinetic data were collected at concentration ranges extending from 0.1 of Km to the maximum possible concentration permitted by substrate solubility or optical absorbance. In all cases maximum substrate concentrations exceeded 5×Km. All data was analysed using the commercial package Sigma Plot™ and fit with non-linear regression to a rectangular hyperbola of the form: y=ax/b+x

Q: For B1, which kcat is on record?
A: 10.3 ± 0.217 s⁻¹

Q: Which kcat does the source give for B2 here?
A: 11 ± 0.383 s⁻¹

Q: For B3, which kcat is on record?
A: 54.77 ± 0.55 s⁻¹

Q: For B4, which kcat is on record?
A: 12 ± 0.15 s⁻¹

Same assay, conditions: fixed substrate nitrofurazone, 10 mM Tris HCl pH 7.0, 25° C., 4% DMSO

Q: For B1, which Km is on record?
A: 3 ± 0.4 µM

Q: For B2, which Km is on record?
A: 7 ± 1 µM

Q: With B3 as the molecule, how does the Km read?
A: 22 ± 1 µM

Q: For B4, which Km is on record?
A: 1 ± 0.2 µM

Test system: not given
Experiment: not given
Details: nitrofurazone and nitrofurantoin as substrates; cited from earlier work

Q: Which “nitroreductase activity compared with wild-type” value does the source give for B1 here?
A: approximately double the wild-type activity

Test system: HeLa cells
Experiment: CB1954 sensitisation of HeLa cells after adenoviral NTR expression (MTS viability)
Format: cell-based, human
Details: range of MOIs, 0-50 μM CB1954, 5 hour exposure, MTS assay
Experimental: Sensitisation of HeLa cells to CB1954 was assayed using the following protocol. Cells were infected with NTR-expressing viruses in suspension (2 hours) at a range of MOIs prior to plating into microtitre plates (10^4 cells/well). After a 24 hour expression period, CB1954 was applied at a range of concentrations (0-50 μM) and after a 5 hour exposure to the prodrug, cell viability was assessed using the Promega MTS cell substrate killing assay (2-3 hour incubation before plate reading at OD450 nm). […] Adenovirus titreing by plaque formation on helper cells is however an error-prone process. To correct for this, experiments were performed with multiple independent titred preparations of each virus.
The titres of these mixes were assumed to be the means of the respective experimentally determined titres. For western blot analysis of NTR expression for normalisation purposes, whole cell extracts were resolved by SDS-PAGE on an 11% separation gel and blotted onto a nitrocellulose membrane. NTR was detected using a sheep anti-NTR serum (1:1000 diluted), donkey anti-sheep IgG labelled with HRP (horseradish peroxidase) and SuperSignal West Pico Chemiluminescence substrate (Pierce), analysed with an Alpha Innotech Imager Model #2.3.1. The relative loading of each well was determined by Coomassie blue staining of the gel post transfer.

Q: With B5 as the molecule, how does the “sensitisation of HeLa cells to CB1954 killing compared with WT NTR” value read?
A: more extensive cell killing than that caused by expression of the WT enzyme

Q: For B6, which “sensitisation of HeLa cells to CB1954 killing compared with WT NTR” value is on record?
A: more extensive cell killing than that caused by expression of the WT enzyme

Test system: UT5600 cells (NTR−) lysogens
Experiment: Survival curve (colony count) IC50 of CB1954 in NTR-expressing lysogens
Format: cell-based, E. coli
Details: concentration of CB1954 giving 50% reduction in colony number after 36h growth; lysogen expressing the named NTR
Experimental: To quantify the improvement in NTR activity in the clones in a less subjective way, a few clones were selected for further study by determining their survival curves. The lysogens were grown overnight in LB +kanamycin and diluted to approximately 1 cell per μl based on the OD. In duplicate, 100 μl diluted cells were plated into Tris-buffered LB plates containing kanamycin, IPTG and 0-400 μM CB1954. After 36h growth the number of colonies on each plate were counted and expressed as a percentage of the number present on the plates with no CB1954. Survival curves showing % survival versus concentration of CB 1954 were plotted (see examples in FIG. 7) and the IC50 determined as the concentration of CB 1954 which kills gives a 50% reduction in colony number (Table 3 and FIG. 8). A few clones containing mutations resulting in an enhanced sensitivity to CB 1954 were selected for further study.

Q: Which IC50 does the source give for B5 here?
A: 21 µM

Q: With B1 as the molecule, how does the IC50 read?
A: 41 µM

Q: For B2, which IC50 is on record?
A: 118 µM

Q: With B3 as the molecule, how does the IC50 read?
A: 43 µM

Q: With B6 as the molecule, how does the IC50 read?
A: 16 µM

Q: With B4 as the molecule, how does the IC50 read?
A: 23 µM

Test system: not listed separately
Experiment: Steady state kinetics of purified NTR, variable substrate CB1954
Format: biochemical
Details: second substrate CB1954; nucleotide NADH
Experimental: as §1, §2

Q: Which “kinetic parameters compared with wild type” value does the source give for B1 here?
A: significant improvement in kcat/Km for both nucleotide and second substrate

Q: With B3 as the molecule, how does the “kinetic parameters compared with wild type” value read?
A: large improvement in catalytic activity vs. second substrate but not in kcat/Km

Q: For B4, which “kinetic parameters compared with wild type” value is on record?
A: significant improvement in kcat/Km for both nucleotide and second substrate

Same assay, conditions: variable substrate CB1954, fixed substrate NADH

Q: What does the source list for B1?
A: Km: 526 ± 10 µM; kcat: 5.93 ± 0.583 s⁻¹

Q: Which Km does the source give for B2 here?
A: 852 ± 8 µM

Q: And the kcat?
A: 5.7 ± 0.417 s⁻¹

Q: With B3 as the molecule, how does the Km read?
A: 1840 ± 44 µM

Q: What about the kcat of the same molecule?
A: 11.5 ± 0.9 s⁻¹

Q: With B4 as the molecule, how does the Km read?
A: 371 ± 12 µM

Q: What about the kcat of the same molecule?
A: 5.72 ± 0.717 s⁻¹

Test system: UT5600 cells (NTR−) lysogens
Experiment: Replica-plate screening of mutant NTR-expressing lysogens on increasing CB1954 (growth score)
Format: cell-based, E. coli
Design: key to Score: 0: Good growth on all concentrations of CB 1954 = vector; Good growth on 100 and 200, faint on 300, ring of growth on 400 μM; Good growth on 100 and 200, ring growth on 300, none or very faint on 400 μM; Good growth on 100, faint to good on 200, none or very faint on 300 and 400 μM; 4: Good growth on 100 μM, none to ring growth on 200 μM = wild type; Good growth on 50 μM, ring on 100 μM, none on 200, 300 or 400 μM; 6: Faint growth on 50 μM, ring on 100 μM; 7: Good growth on 50 μM, none on 100 μM; 8: Ring growth on 50 μM, none on 100 μM; 9: None or very faint growth on 50 μM, none on 100 μM; 10: None or ring growth on 35 μM
Details: CB1954
Experimental: The ligation mix was packaged (Stratagene) into lambda bacteriophage particles that were used to infect UT5600 cells (NTR ^−). As a control wild type NTR was also cloned into this vector (JG16C2). Kanamycin resistant lysogens were selected on agar plates ([…] kanamycin) then individually grown overnight in a well of a 96-well plate in LB+Kanamycin. The clones were replica plated on to a series of plates containing Tris-buffered (50 mM, pH 7.5) LB agar with kanamycin, IPTG (0.1 mM) and CB1954 at a concentration of 0, 25, 35, 50, 100, 200, 300 or 400 μM (see FIG. 3). […]

Q: For B5, which “nitroreductase activity with CB1954 compared with wild-type” value (“nitroreductase activity with CB1954” for short) is on record?
A: substantially greater activity with CB 1954 than the wild-type

Q: With B1 as the molecule, how does the “nitroreductase activity with CB1954” value read?
A: substantially greater activity with CB 1954 than the wild-type

Q: Which “nitroreductase activity with CB1954” value does the source give for B4 here?
A: substantially greater activity with CB 1954 than the wild-type

Same assay, conditions: growth of lysogens on agar with kanamycin, IPTG and 0-400 μM CB1954; wild type = 4, higher = more sensitive

Q: Which Score does the source give for B5 here?
A: 8-10

Q: Which Score does the source give for B1 here?
A: 7-9

Q: For B2, which Score is on record?
A: 4

Q: For B3, which Score is on record?
A: 7

Q: With B6 as the molecule, how does the Score read?
A: 9

Q: With B4 as the molecule, how does the Score read?
A: 8-10

Test system: not listed separately
Experiment: Steady state kinetics of purified NTR, variable substrate nitrofurazone
Format: biochemical
Details: fixed substrate NADH
Experimental: as §1, §2

Q: Which Km does the source give for B1 here?
A: 104 ± 10 µM

Q: What about the kcat of the same molecule?
A: 10.7 ± 0.267 s⁻¹

Q: What does the source list for B2?
A: Km: 157 ± 4 µM; kcat: 11.4 ± 0.05 s⁻¹

Q: For B3, which Km is on record?
A: 699 ± 24 µM

Q: What about the kcat of the same molecule?
A: 59.02 ± 0.4 s⁻¹

Q: With B4 as the molecule, how does the Km read?
A: 53 ± 5 µM

Q: What about the kcat of the same molecule?
A: 12.6 ± 0.25 s⁻¹
